Laboratory results from publication PMC11910330, “Familial Alzheimer’s disease mutations in amyloid precursor protein impair calcineurin signaling to NMDA receptors” (The Journal of Biological Chemistry, 2024).

What was measured:
[1] = target: APLP1 peptide (APLP1 core sequence in the PVIVIT peptide); assay: pull-down; biotinylated peptides (10 ug) precoupled to streptavidin-coated beads, incubated with 200 ng GST-CaN in 200 ul for 30 min at 4 C; PBS with 0.1% Tween-20 and 0.1% BSA, or 150 mM NaCl, 10 mM Hepes, 5 mM EDTA, pH 7.4 with 0.5% CHAPSO and 0.1% BSA; immunoblot with anti-CaN, normalised to a GST-CaN standard
[2] = target: APLP2 peptide (APLP2 core sequence in the PVIVIT peptide); assay: as above

**Q.** For “recombinant GST-tagged CaN A subunit (from UniProt Q08209 1-521) (enzyme)”, which percent lower CaN binding than the PVIVIT peptide [1] is on record?
**A.** Its percent lower CaN binding than the PVIVIT peptide is 80%.

**Q.** What about the percent lower CaN binding than the PVIVIT peptide [2] of the same substance?
**A.** The percent lower CaN binding than the PVIVIT peptide was 30%.
